We go through two substances from paper PMC4656997.

For the assay, the target named is GST-CTD substrate (human).

Regarding “full length CDK12/CycK1 complex (from UniProt Q9NYV4-1 1-1490; O75909 1-580)”, the KmCTD from in vitro kinase assay (32P-GST-CTD product) against varying concentrations of GST-CTD substrate, 10 μM ATP, 15 min worked out at 0.3 µM.
As for “CDK12^715–1052/CycK^11–267 complex (from UniProt Q9NYV4 715-1052; O75909 11-267)”, the KmCTD from in vitro kinase assay (32P-GST-CTD product) against varying concentrations of GST-CTD substrate amounted to 2 µM.
